These are literature values, as cited in article PMC8895726.

This data set concerns the target LAG-3:Fc (Mus musculus) (UniProt Q61790). In words: BLI.
UniProt Q61790, sequence (Q61790 24-442): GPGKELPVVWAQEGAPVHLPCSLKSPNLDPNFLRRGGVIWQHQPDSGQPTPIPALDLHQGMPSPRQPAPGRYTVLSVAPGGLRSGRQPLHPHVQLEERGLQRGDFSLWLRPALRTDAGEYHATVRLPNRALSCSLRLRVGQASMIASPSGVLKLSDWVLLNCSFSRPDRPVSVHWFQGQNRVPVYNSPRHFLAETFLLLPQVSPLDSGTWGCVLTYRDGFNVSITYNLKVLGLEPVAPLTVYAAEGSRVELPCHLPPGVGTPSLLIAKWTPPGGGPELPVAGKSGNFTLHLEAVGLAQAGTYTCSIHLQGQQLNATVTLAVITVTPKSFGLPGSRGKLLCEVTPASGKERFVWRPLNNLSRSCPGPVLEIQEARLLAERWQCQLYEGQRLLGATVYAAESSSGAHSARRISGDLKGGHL

For the substance FGL1 (from UniProt Q71KU9), the dissociation constant (Kd) (in general, the free concentration of one partner at which half of the binding sites on the other are occupied at equilibrium, for simple one-to-one binding) is 1.5 nM.
